Data on three substances can be found in article PMC9941103.

“And” between values parts separate entries of the source, which are not always exact repeats. Identical values can stand only once.

The target in test [1] is SNARE:Complexin-1 complex (UniProt P60881). The test is described as follows: native MS; equimolar Complexin-1 added to the pre-assembled SNARE complexes.
The target of test [2] is fully assembled ternary SNARE complex (SNAP25:Syntaxin-1A:Synaptobrevin-2, 3Q:1R) (UniProt P60881). The test is described as follows: native MS; Synaptobrevin-2, SNAP25 and Syntaxin-1A mixed 1:1:1, incubated overnight.
The target is the same in test [3]. Nature of the test: native MS; equimolar Syntaxin-1A added to the pre-assembled 2:1 SNAP25:Synaptobrevin-2 complex.
Test [4] has the same target. The test is described as follows: native MS; 1.2 molar excess of Synaptobrevin-2 added to pre-assembled binary SNAP25:Syntaxin-1A complexes (1:2 mix), analysed directly.
The target of test [5] is pre-assembled binary SNAP25:Syntaxin-1A complex (1:2, 4Q:0R) (UniProt P60881). Nature of the test: native MS; SNAP25 and Syntaxin-1A mixed 1:2; 200 mM ammonium acetate.

In test [1], “SNARE:Complexin-1 complex (from UniProt P60881 1-206; P32851 1-262; P63045 1-96; P63041 1-134)” displayed a stoichiometry N of 2. As to “fully assembled ternary SNARE complex (SNAP25:Syntaxin-1A:Synaptobrevin-2, 3Q:1R) (from UniProt P60881 1-206; P32851 1-262; P63045 1-96)”, the stoichiometry N is 2 and 3 in test [2]; 2 and 3 and 4 in test [3]; 2 and 3 in test [4]. In the case of “pre-assembled binary SNAP25:Syntaxin-1A complex (1:2, 4Q:0R) (from UniProt P60881 1-206; P32851 1-262)”, the stoichiometry N in test [5] was determined as 2.

For orientation: stoichiometry N means the number of molecules, sites or subunits per partner or assembly.
